Test results: the supplement of paper PMC12764529
± gives the half width of the 95% confidence interval.

Columns and labels:
[1] = folding stability dG unfold from chymotrypsin proteolysis; higher = more stable
Outline: (§1)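 Sequencing followed digestion of designed mini-proteins with trypsin and chymotrypsin, each at 11 concentrations in threefold dilutions together with a no-protease condition. The mini-proteins were under 80 residues, had no cysteine, sat in a PA-tagged cDNA display construct, and were kept only if AlphaFold2 dimer inter-PAE was above 15. From the counts, Bayesian fitting gave K50, and unfolding free energy was derived against a sequence-predicted unfolded-state K50 and a shared folded-state K50, per protease or combined.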

[2] = folding stability dG unfold from trypsin proteolysis; higher = more stable
Outline: as §1

[3] = folding stability dG unfold (combined trypsin and chymotrypsin); higher = more stable
Outline: as §1

Row | Sequence | folding stability dG unfold [1] [kcal/mol] | folding stability dG unfold [2] [kcal/mol] | folding stability dG unfold [3] [kcal/mol]
1 | SAGGSAGGSAKEIDFKFRSPGNGEEFPFRVEIDEFDPDDGPLLIKVEMPNGKPHTFPADDILSAGGSAGGSA [r18_334_TrROS] | 0.76 ± 0.15 | 0.101 ± 0.086 | 0.503 ± 0.11
2 | SMKPEEVKVIAEIEIEVNGKKIKIKIVKKKDGTVRVEIEVDGKKIEIEVKVKSKEEAKKILEELLKKLGISA [r9_758_TrROS_Hall] | 1.53 ± 0.14 | 2.93 ± 0.4 | 2.41 ± 0.52
3 | SAGGGRTITVTARFTDPATGTTTTETITIDVPSDTSEEEKKEIAEKTVKEIAEKNGVKSEIESISITSAGGS [r8_312_JUSTAS] | 2.3 ± 0.17 | 4.24 ± 0.29 | 4.32 ± 0.7
4 | SAGGSAGGSSPLIEKLRKDPNVTKIEIDTVKNTTYIYTPNKIYIINSKGEIEKVEEVSPEILKSAGGSAGGS [r12_895_JUSTAS] | 2.36 ± 0.072 | 0.743 ± 0.067 | 1.81 ± 0.17
5 | SAGGSAGGSAGGEIVIPVDGKLVVIKLKNGKKITVPVEDLKELLKKLGIKNAKIEVVPAKSAGGSAGGSAGG [r7_235_TrROS_Hall] | 2.82 ± 0.049 | 1.8 ± 0.088 | 2.56 ± 0.17
6 | SAMITVPFTFPAEKAEEILEDPELKELLEKLEKELGAKVVKIEVSPETVPSGSKTTEYVKFTFTIEKKGSAG [r14_819_JUSTAS] | 1.8 ± 0.16 | 1.2 ± 0.032 | 1.55 ± 0.16
7 | SAGGSKKIVKEMKSKEVIDLAKKLKEKKDIIIVVKLNGKVKVLDLDKVKPIPDKNVKAIIEIKPKKKSAGGS [r16_628_TrMRF] | 0.901 ± 0.094 | 0.571 ± 0.22 | 0.745 ± 0.29
8 | SAGGSRVEVEVEVEGDTLRVRLRVYSEGGPPLLEAEAELPLGPVPPLPPVEVRVDPLEEEYPAKYFSAGGSA [r2_332_TrMRF] | 2.28 ± 0.17 | 2.82 ± 0.14 | 2.5 ± 0.31
9 | SAGGSAEKPPYVIRLEITVKGPGKKVKLDILVDSPEELEAVIQALKDLGFTDIEPKIETFPLEELDSAGGSA [r15_1015_TrMRF] | 2.42 ± 0.11 | 1.63 ± 0.12 | 2.18 ± 0.17
10 | SAMRFVVRVEGDLEEVERALREEFDFEMEAEREEDGRLVVVVEAEPEELERLVEALERLPDFPVEIEPESAG [r14_521_TrMRF] | 0.716 ± 0.1 | 1.01 ± 0.027 | 0.93 ± 0.062
11 | SAGGSAGGMITVNSEEEAKELEAELKEKGYKAEVTPKTGKNGPYYLITLTPIPKKKKSTKKSKLSAGGSAGG [r6_182_JUSTAS] | 1.03 ± 0.11 | 1.16 ± 0.095 | 1.13 ± 0.21
12 | SAGGTIMIPFDTPEQAKDIREAAKDGEPIEIRPPDGKPIKFKIKDVEVDPNSGWLVIKIPNGRTIPISAGGS [r16_254_TrROS] | 0.151 ± 0.15 | -0.179 ± 0.19 | 0.0332 ± 0.097
13 | SAGGSNVVEVEVEELPDGTVVLRVRVLRLLPNGELGGVVERPFVFPRELFENIPLEEIVRRAVEEGSAGGSA [r2_421_TrMRF] | 3.758 ± 0.032 | 3.39 ± 0.081 | 3.63 ± 0.072
14 | SMTEELVIDFPDGVKATVRRFGDGEVTITIDWPTDNPELRKKGGIKALVDAIAKELGLDPSKVKVYTRNASA [r9_401_TrMRF] | 4.12 ± 0.087 | 3.05 ± 0.086 | 3.75 ± 0.11
15 | SAGADSVTYDPETNLVVVYRRVGDDVEVLVLEPVPLPVVVVVPVEDAVTRNPELRPLLEQNPDFYLVFPSAG [r5_957_TrMRF] | 2.248 ± 0.022 | 1.88 ± 0.036 | 2.13 ± 0.051
16 | SAKPPVIVIRIEKKEDGTYRVTIEVDGKEIEIEVPEGTSLEEILKKLAEELGVEVEVVEVKDGYLVIKPSAG [r14_404_TrROS_Hall] | 2.88 ± 0.092 | 2.82 ± 0.2 | 2.84 ± 0.26
17 | SAGIPLGPEQLRALAEELAEEFKKKLAEELGLSPEDIKLLSIRRLPDGSIEIELEIPDRTYRYTFPLPDSAG [r5_565_JUSTAS] | 3.02 ± 0.042 | 3.2 ± 0.17 | 3.1 ± 0.16
18 | SAGGMKIVSESTDPSVPTSYVTIEITDPKTGKKTTIKLPQDPAAGTGSPEALAKEVREKLKLPEGVELSAGG [r13_362_JUSTAS] | 1.01 ± 0.053 | 0.221 ± 0.083 | 0.814 ± 0.073
19 | SAGGSKKEIEALKGKTVTFPKIRDPKTNELLEPVKVKIVEVKYDKDTKKIYIKVEVDGKIYTFEIDSAGGSA [r2_314_TrROS_Hall] | 2.85 ± 0.062 | 0.868 ± 0.19 | 2.5 ± 0.37
20 | SAGGSAGGSMYYVVVTRPGGRPEVIVVPTETLEEVEEVAARIAEALRELGIPEEELEIRVLPVSAGGSAGGS [r12_295_TrMRF] | 1.679 ± 0.016 | 2.4 ± 0.046 | 2.03 ± 0.091
21 | SAGGSAGGSGWIKIEFWIPIPIPVMKFDPGDGNWEMEPVTIMIRVEIEIPIPPSPEDLEKNGLSAGGSAGGS [r20_172_TrROS] | 2.82 ± 0.069 | 2.2 ± 0.15 | 2.57 ± 0.27

Row | Sequence | folding stability dG unfold [1] [kcal/mol] | folding stability dG unfold [2] [kcal/mol] | folding stability dG unfold [3] [kcal/mol]
22 | SAGGSAGGSAGGPAPKIDIEIIGVFKTGNRPILIIRFPDGAVIVIDLDSGEIGVIPPDQISAGGSAGGSAGG [r7_28_TrROS] | 2.24 ± 0.11 | 2.9 ± 0.19 | 2.66 ± 0.17
23 | SAGGSAGGSAGKNPDGQPAPTIEIEPRTRELPDNGYKITIMRIRFPDSGVEFPMIMISPPSAGGSAGGSAGG [r17_31_TrROS] | 1.51 ± 0.091 | 0.833 ± 0.072 | 1.29 ± 0.1
24 | SGKKIEIVKKILEELGIPIVKIEEVTPDRIVVEVEEGRRISIAIKPDDPDVVLIDPKPTEDGGWSSDLPDSA [r9_809_TrMRF] | 0.939 ± 0.042 | 1.26 ± 0.038 | 1.06 ± 0.12
25 | SAGGMKTTLLKEEELPGGVKRKIYLTENSSGGYYYVVTVTTELEPPAESKVSVSSKKISPEELKKLLSAGGS [r16_45_JUSTAS] | 3.55 ± 0.069 | 2.93 ± 0.14 | 3.32 ± 0.17
26 | SAMTVTITLPPSISPEEAKAALEAAFPGEDIQVTTTTDPNAGTLTVTVTFSSPEDAARAAALLAEVRAASAG [r14_443_JUSTAS] | 4.68 ± 0.067 | 2.86 ± 0.046 | 4.33 ± 0.077
27 | SAGGMKTITLEEAKALAEKAAEKGETVEIEVTLPDGTVVKFKVDAKTKKVELVEVKKLPAPPEDPEKKSAGG [r13_839_TrROS_Hall] | 3.07 ± 0.088 | 1.12 ± 0.046 | 2.68 ± 0.13
28 | SMTLIVRVEVENENGEKIEKEVEVEVEPGETIEELLKKLNLSEEEVKKVKIEVYVIKDGKLEKKEFTLEKSA [r9_755_TrROS_Hall] | 2.61 ± 0.077 | 1.29 ± 0.2 | 2.29 ± 0.35
29 | SAGGSAGGSAGKPKEIFVFDKEIDADEAVALLPDEVKEVVVFDIEEAREKGGILIKAVVDSAGGSAGGSAGG [r11_1002_TrMRF] | 0.898 ± 0.1 | -1.18 ± 0.61 | 0.54 ± 0.14
30 | SAGGSAATVEVTRLPGGRYVVRLRNPDTDEEIVVELPVDASTTPEDVLEAARALVAELEEEGYTIESAGGSA [r15_1022_TrMRF] | 3.135 ± 0.024 | 2.92 ± 0.07 | 3.04 ± 0.058
31 | SAGGSAGGSMTVTITFAPDESLGPEKLEELLKKAGPDTTIVLSKYDPATGTTSTATIKVEPGSSAGGSAGGS [r12_913_JUSTAS] | 1.25 ± 0.013 | 0.697 ± 0.046 | 1.07 ± 0.07
32 | SAGGSAGGSAGMPVITVDVYEDDNTYTITITLSDGTPVVVTVTSPDTPVEEAVAAVIAALSAGGSAGGSAGG [r11_313_JUSTAS] | 2.77 ± 0.16 | 3.45 ± 0.15 | 3.16 ± 0.16
33 | SAGGSAKKVEKVTVTVLIEKDGKLYLVRVTVTRPKVKYDKKTGKFTVTLKPGEKVEIKVEVVELPESAGGSA [r15_1040_TrROS_Hall] | 3.7 ± 0.12 | 2.65 ± 0.21 | 3.62 ± 0.24
34 | SAGGSAALPIVEVLETEESSDGTVTILAKLEDGTVVTITVTVEVKPPPPPPPVDPANMSPERLAAVSAGGSA [r15_41_JUSTAS] | 0.181 ± 0.07 | 0.998 ± 0.08 | 0.566 ± 0.19
35 | SAGGSAGILEKTIKLAEELGLPVVEAKVVKKKNKVYVFFKSKKSKKYVIEIDGDKITIKPYSVVKKSAGGSA [r15_901_TrMRF] | 2.99 ± 0.05 | 1.954 ± 0.014 | 2.68 ± 0.059
36 | SAGGMTKTESEVFFEPDGSSSSAKVTITVDDGPLTANVTISPDSVTTTINYPDGSTVTTTTSVSPAASAGGS [r16_108_JUSTAS] | 1.48 ± 0.052 | 0.942 ± 0.081 | 1.27 ± 0.13
37 | SADIKIDVTYRRSPGEGRYTMTVRVELPDGKKLAEIPITMPADDPGMSPRQMREWARPIVKKLAKEGLISAG [r14_120_TrROS] | 1.02 ± 0.1 | 0.537 ± 0.12 | 0.889 ± 0.08
38 | SAGGSAGGMTPVVVTVTITLPNGEVVEYRVPVAPDELEAAAEAVKEPLEAQGVDVEVEIEAVAASAGGSAGG [r6_721_JUSTAS] | 1.5 ± 0.033 | 1.99 ± 0.065 | 1.7 ± 0.089
39 | SAGLSEIVKKLFPEEEIEIEVEERTLPGPPNIPVVEFDVRITFKDGRTFRARAIRYPDFVLIEVEPLEPSAG [r14_28_TrMRF] | 3.75 ± 0.065 | 3.26 ± 0.11 | 3.62 ± 0.11
40 | SKTVIIEVPAKDLDKIKELIKKLKPGQKVKIVFKDANGKLITVTIEVKPAPPPKISLEELSEEQRKALEKSA [r9_1103_TrROS_Hall] | 1.89 ± 0.23 | 1.53 ± 0.081 | 1.79 ± 0.28
41 | SAGGSAEPIGTLTLSFPVKVKVKDADGSIHEYDVTITVTPTVYRLPNGDLVVGLDVEIVFPDGSSLPGSAGG [r13_113_TrMRF] | 4.42 ± 0.065 | 3.11 ± 0.1 | 4.16 ± 0.066
42 | SAGGSAGGKLKIEITLEKVKNPETKEYYYRLRVTIYNENGKKIKEIEVVAKSKEEALEALKKLLSAGGSAGG [r6_974_TrROS_Hall] | 5.24 ± 0.068 | 4.98 ± 0.22 | 5.2 ± 0.13
